Results on 6 molecules are retold here after patent US20140087995A1 (published 2014).

T1: human calcitonin receptor (human, UniProt P30988 25-474)
T1 sequence (looked up): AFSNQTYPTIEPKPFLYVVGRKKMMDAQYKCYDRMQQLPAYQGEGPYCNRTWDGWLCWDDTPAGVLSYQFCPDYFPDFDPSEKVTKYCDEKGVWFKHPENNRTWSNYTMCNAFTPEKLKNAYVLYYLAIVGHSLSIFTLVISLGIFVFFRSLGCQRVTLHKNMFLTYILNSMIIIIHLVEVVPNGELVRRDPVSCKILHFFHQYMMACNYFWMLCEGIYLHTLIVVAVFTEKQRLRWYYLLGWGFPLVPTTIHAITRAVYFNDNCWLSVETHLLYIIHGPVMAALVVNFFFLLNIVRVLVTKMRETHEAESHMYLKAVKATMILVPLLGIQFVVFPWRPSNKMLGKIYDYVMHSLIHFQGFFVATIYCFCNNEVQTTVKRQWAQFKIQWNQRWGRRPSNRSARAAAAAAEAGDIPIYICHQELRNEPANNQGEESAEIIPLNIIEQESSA

T2: human amylin receptor (amylin 3(a) receptor: human calcitonin receptor coexpressed with RAMP-3) (human, UniProt P30988 25-474; O60896 24-148)
T2 sequence (looked up) 1: T1 sequence (looked up)
T2 sequence (looked up) 2: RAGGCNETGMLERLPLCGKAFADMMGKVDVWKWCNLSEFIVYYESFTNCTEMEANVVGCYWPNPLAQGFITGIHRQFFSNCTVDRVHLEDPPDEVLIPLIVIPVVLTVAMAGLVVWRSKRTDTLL

B1: N^ε1-[2-[2-[2-[[(4S)-4-carboxy-4-(19-carboxynonadecanoylamino)butanoyl]amino]ethoxy]ethoxy]acetyl]-[Arg14,Arg17,Pro21,Pro27]-h-amylin (peptide)
peptide: K([AEEA-γGlu-C20 diacid])CNTATCATQRLARFLRHSSPNFGAIPSSTNVGSNTY-NH2
modifications: disulfide 2-7; N-terminus assumed
SMILES: CC[C@H](C)[C@H](NC(=O)[C@H](C)NC(=O)CNC(=O)[C@H](Cc1ccccc1)NC(=O)[C@H](CC(N)=O)NC(=O)[C@@H]1CCCN1C(=O)[C@H](CO)NC(=O)[C@H](CO)NC(=O)[C@H](Cc1c[nH]cn1)NC(=O)[C@H](CCCNC(=N)N)NC(=O)[C@H](CC(C)C)NC(=O)[C@H](Cc1ccccc1)NC(=O)[C@H](CCCNC(=N)N)NC(=O)[C@H](C)NC(=O)[C@H](CC(C)C)NC(=O)[C@H](CCCNC(=N)N)NC(=O)[C@H](CCC(N)=O)NC(=O)[C@@H](NC(=O)[C@H](C)NC(=O)[C@@H]1CSSC[C@H](NC(=O)[C@@H](N)CCCCNC(=O)COCCOCCNC(=O)CC[C@H](NC(=O)CCCCCCCCCCCCCCCCCCC(=O)O)C(=O)O)C(=O)N[C@@H](CC(N)=O)C(=O)N[C@@H]([C@@H](C)O)C(=O)N[C@@H](C)C(=O)N[C@@H]([C@@H](C)O)C(=O)N1)[C@@H](C)O)C(=O)N1CCC[C@H]1C(=O)N[C@@H](CO)C(=O)N[C@@H](CO)C(=O)N[C@H](C(=O)N[C@@H](CC(N)=O)C(=O)N[C@H](C(=O)NCC(=O)N[C@@H](CO)C(=O)N[C@@H](CC(N)=O)C(=O)N[C@H](C(=O)N[C@@H](Cc1ccc(O)cc1)C(N)=O)[C@@H](C)O)C(C)C)[C@@H](C)O
notes: also called compound 82
B2: N^ε1-[2-[2-[2-[[(4S)-4-carboxy-4-(19-carboxynonadecanoylamino)butanoyl]amino]ethoxy]ethoxy]acetyl]-[His14,Arg17,Pro21,Pro27,Arg34]-h-amylin (peptide)
peptide: K([AEEA-γGlu-C20 diacid])CNTATCATQRLAHFLRHSSPNFGAIPSSTNVGRNTY-NH2
modifications: disulfide 2-7; N-terminus assumed
SMILES: CC[C@H](C)[C@H](NC(=O)[C@H](C)NC(=O)CNC(=O)[C@H](Cc1ccccc1)NC(=O)[C@H](CC(N)=O)NC(=O)[C@@H]1CCCN1C(=O)[C@H](CO)NC(=O)[C@H](CO)NC(=O)[C@H](Cc1c[nH]cn1)NC(=O)[C@H](CCCNC(=N)N)NC(=O)[C@H](CC(C)C)NC(=O)[C@H](Cc1ccccc1)NC(=O)[C@H](Cc1c[nH]cn1)NC(=O)[C@H](C)NC(=O)[C@H](CC(C)C)NC(=O)[C@H](CCCNC(=N)N)NC(=O)[C@H](CCC(N)=O)NC(=O)[C@@H](NC(=O)[C@H](C)NC(=O)[C@@H]1CSSC[C@H](NC(=O)[C@@H](N)CCCCNC(=O)COCCOCCNC(=O)CC[C@H](NC(=O)CCCCCCCCCCCCCCCCCCC(=O)O)C(=O)O)C(=O)N[C@@H](CC(N)=O)C(=O)N[C@@H]([C@@H](C)O)C(=O)N[C@@H](C)C(=O)N[C@@H]([C@@H](C)O)C(=O)N1)[C@@H](C)O)C(=O)N1CCC[C@H]1C(=O)N[C@@H](CO)C(=O)N[C@@H](CO)C(=O)N[C@H](C(=O)N[C@@H](CC(N)=O)C(=O)N[C@H](C(=O)NCC(=O)N[C@@H](CCCNC(=N)N)C(=O)N[C@@H](CC(N)=O)C(=O)N[C@H](C(=O)N[C@@H](Cc1ccc(O)cc1)C(N)=O)[C@@H](C)O)C(C)C)[C@@H](C)O
notes: also called compound 84
B3: N^ε1-[(4S)-4-carboxy-4-(19-carboxynonadecanoylamino)butanoyl]-[Arg17,Pro21,Pro27,Arg34]-h-amylin (peptide)
peptide: K([γGlu-C20 diacid])CNTATCATQRLANFLRHSSPNFGAIPSSTNVGRNTY-NH2
modifications: disulfide 2-7; N-terminus assumed
SMILES: CC[C@H](C)[C@H](NC(=O)[C@H](C)NC(=O)CNC(=O)[C@H](Cc1ccccc1)NC(=O)[C@H](CC(N)=O)NC(=O)[C@@H]1CCCN1C(=O)[C@H](CO)NC(=O)[C@H](CO)NC(=O)[C@H](Cc1c[nH]cn1)NC(=O)[C@H](CCCNC(=N)N)NC(=O)[C@H](CC(C)C)NC(=O)[C@H](Cc1ccccc1)NC(=O)[C@H](CC(N)=O)NC(=O)[C@H](C)NC(=O)[C@H](CC(C)C)NC(=O)[C@H](CCCNC(=N)N)NC(=O)[C@H](CCC(N)=O)NC(=O)[C@@H](NC(=O)[C@H](C)NC(=O)[C@@H]1CSSC[C@H](NC(=O)[C@@H](N)CCCCNC(=O)CC[C@H](NC(=O)CCCCCCCCCCCCCCCCCCC(=O)O)C(=O)O)C(=O)N[C@@H](CC(N)=O)C(=O)N[C@@H]([C@@H](C)O)C(=O)N[C@@H](C)C(=O)N[C@@H]([C@@H](C)O)C(=O)N1)[C@@H](C)O)C(=O)N1CCC[C@H]1C(=O)N[C@@H](CO)C(=O)N[C@@H](CO)C(=O)N[C@H](C(=O)N[C@@H](CC(N)=O)C(=O)N[C@H](C(=O)NCC(=O)N[C@@H](CCCNC(=N)N)C(=O)N[C@@H](CC(N)=O)C(=O)N[C@H](C(=O)N[C@@H](Cc1ccc(O)cc1)C(N)=O)[C@@H](C)O)C(C)C)[C@@H](C)O
notes: also called compound 79
B4: N^ε1-[(4S)-4-carboxy-4-(19-carboxynonadecanoylamino)butanoyl]-[Arg14,Arg17,Pro21,Pro27]-h-amylin (peptide)
peptide: K([γGlu-C20 diacid])CNTATCATQRLARFLRHSSPNFGAIPSSTNVGSNTY-NH2
modifications: disulfide 2-7; N-terminus assumed
SMILES: CC[C@H](C)[C@H](NC(=O)[C@H](C)NC(=O)CNC(=O)[C@H](Cc1ccccc1)NC(=O)[C@H](CC(N)=O)NC(=O)[C@@H]1CCCN1C(=O)[C@H](CO)NC(=O)[C@H](CO)NC(=O)[C@H](Cc1c[nH]cn1)NC(=O)[C@H](CCCNC(=N)N)NC(=O)[C@H](CC(C)C)NC(=O)[C@H](Cc1ccccc1)NC(=O)[C@H](CCCNC(=N)N)NC(=O)[C@H](C)NC(=O)[C@H](CC(C)C)NC(=O)[C@H](CCCNC(=N)N)NC(=O)[C@H](CCC(N)=O)NC(=O)[C@@H](NC(=O)[C@H](C)NC(=O)[C@@H]1CSSC[C@H](NC(=O)[C@@H](N)CCCCNC(=O)CC[C@H](NC(=O)CCCCCCCCCCCCCCCCCCC(=O)O)C(=O)O)C(=O)N[C@@H](CC(N)=O)C(=O)N[C@@H]([C@@H](C)O)C(=O)N[C@@H](C)C(=O)N[C@@H]([C@@H](C)O)C(=O)N1)[C@@H](C)O)C(=O)N1CCC[C@H]1C(=O)N[C@@H](CO)C(=O)N[C@@H](CO)C(=O)N[C@H](C(=O)N[C@@H](CC(N)=O)C(=O)N[C@H](C(=O)NCC(=O)N[C@@H](CO)C(=O)N[C@@H](CC(N)=O)C(=O)N[C@H](C(=O)N[C@@H](Cc1ccc(O)cc1)C(N)=O)[C@@H](C)O)C(C)C)[C@@H](C)O
notes: also called compound 83
B5: N^ε1-[2-[2-[2-[[(4S)-4-carboxy-4-(19-carboxynonadecanoylamino)butanoyl]amino]ethoxy]ethoxy]acetyl]-[His14,Arg17,Pro21,Pro27,His34]-h-amylin (peptide)
peptide: K([AEEA-γGlu-C20 diacid])CNTATCATQRLAHFLRHSSPNFGAIPSSTNVGHNTY-NH2
modifications: disulfide 2-7; N-terminus assumed
SMILES: CC[C@H](C)[C@H](NC(=O)[C@H](C)NC(=O)CNC(=O)[C@H](Cc1ccccc1)NC(=O)[C@H](CC(N)=O)NC(=O)[C@@H]1CCCN1C(=O)[C@H](CO)NC(=O)[C@H](CO)NC(=O)[C@H](Cc1c[nH]cn1)NC(=O)[C@H](CCCNC(=N)N)NC(=O)[C@H](CC(C)C)NC(=O)[C@H](Cc1ccccc1)NC(=O)[C@H](Cc1c[nH]cn1)NC(=O)[C@H](C)NC(=O)[C@H](CC(C)C)NC(=O)[C@H](CCCNC(=N)N)NC(=O)[C@H](CCC(N)=O)NC(=O)[C@@H](NC(=O)[C@H](C)NC(=O)[C@@H]1CSSC[C@H](NC(=O)[C@@H](N)CCCCNC(=O)COCCOCCNC(=O)CC[C@H](NC(=O)CCCCCCCCCCCCCCCCCCC(=O)O)C(=O)O)C(=O)N[C@@H](CC(N)=O)C(=O)N[C@@H]([C@@H](C)O)C(=O)N[C@@H](C)C(=O)N[C@@H]([C@@H](C)O)C(=O)N1)[C@@H](C)O)C(=O)N1CCC[C@H]1C(=O)N[C@@H](CO)C(=O)N[C@@H](CO)C(=O)N[C@H](C(=O)N[C@@H](CC(N)=O)C(=O)N[C@H](C(=O)NCC(=O)N[C@@H](Cc1c[nH]cn1)C(=O)N[C@@H](CC(N)=O)C(=O)N[C@H](C(=O)N[C@@H](Cc1ccc(O)cc1)C(N)=O)[C@@H](C)O)C(C)C)[C@@H](C)O
notes: also called compound 80
B6: N^ε1-[2-[2-[2-[[(4S)-4-carboxy-4-(19-carboxynonadecanoylamino)butanoyl]amino]ethoxy]ethoxy]acetyl]-[Arg17,Pro21,Pro27,Arg34]-h-amylin (peptide)
peptide: K([AEEA-γGlu-C20 diacid])CNTATCATQRLANFLRHSSPNFGAIPSSTNVGRNTY-NH2
modifications: disulfide 2-7; N-terminus assumed
SMILES: CC[C@H](C)[C@H](NC(=O)[C@H](C)NC(=O)CNC(=O)[C@H](Cc1ccccc1)NC(=O)[C@H](CC(N)=O)NC(=O)[C@@H]1CCCN1C(=O)[C@H](CO)NC(=O)[C@H](CO)NC(=O)[C@H](Cc1c[nH]cn1)NC(=O)[C@H](CCCNC(=N)N)NC(=O)[C@H](CC(C)C)NC(=O)[C@H](Cc1ccccc1)NC(=O)[C@H](CC(N)=O)NC(=O)[C@H](C)NC(=O)[C@H](CC(C)C)NC(=O)[C@H](CCCNC(=N)N)NC(=O)[C@H](CCC(N)=O)NC(=O)[C@@H](NC(=O)[C@H](C)NC(=O)[C@@H]1CSSC[C@H](NC(=O)[C@@H](N)CCCCNC(=O)COCCOCCNC(=O)CC[C@H](NC(=O)CCCCCCCCCCCCCCCCCCC(=O)O)C(=O)O)C(=O)N[C@@H](CC(N)=O)C(=O)N[C@@H]([C@@H](C)O)C(=O)N[C@@H](C)C(=O)N[C@@H]([C@@H](C)O)C(=O)N1)[C@@H](C)O)C(=O)N1CCC[C@H]1C(=O)N[C@@H](CO)C(=O)N[C@@H](CO)C(=O)N[C@H](C(=O)N[C@@H](CC(N)=O)C(=O)N[C@H](C(=O)NCC(=O)N[C@@H](CCCNC(=N)N)C(=O)N[C@@H](CC(N)=O)C(=O)N[C@H](C(=O)N[C@@H](Cc1ccc(O)cc1)C(N)=O)[C@@H](C)O)C(C)C)[C@@H](C)O
notes: also called compound 78

Numbered stars: 1 amine (or outer) side, 2 acyl side, 3 side chain; on linkers, the order of the positions; unused ones are H or OH. Bridge positions count the residues as written; N and C are the ends. Side chains are listed from the residue outwards. Ends that are not written are not given here. * marks the point of attachment. C20 diacid = O=C(O)CCCCCCCCCCCCCCCCCCC(=O)*; γGlu = O=C(O)[C@H](CCC(=O)[*:2])N[*:1]; AEEA = NCCOCCOCC(=O)O

The target in the first experiment is T1, human calcitonin receptor. The experiment is described as follows: cell-based or functional assay.
As for B1, the “hCTR funct. EC50 (pM)” value is 12700 pM.
Take B2: the “hCTR funct. EC50 (pM)” value was 5490 pM.
On the same count and under the same terms, with B3 the figure was 3940 pM.
Same read-out and setting: with B4 the figure was 16800 pM.
As for B5, the “Ratio hCT/hAmylin funct.” value turned out to be 15.4 and the “hCTR funct. EC50 (pM)” value was determined as 2140 pM.
Consider B6, for which the “hCTR funct. EC50 (pM)” value worked out at 8160 pM.

Another experiment addresses T2, human amylin receptor (amylin 3(a) …). Briefly: cell-based or functional assay.
For B1, the “hAmylin-R funct. EC50 (pM)” value came out at 215 pM.
Same read-out and setting: to B2 belongs 169 pM.
Turning to B3, the “hAmylin-R funct. EC50 (pM)” value was found to be 161 pM.
The same measure, in the same setting: to B4 belongs 405 pM; to B5, 139 pM; to B6, 316 pM.
